From patent US20250042987A1 (BEIJING DONGFANG BIOTECH, published 2025) come the findings set out here.

First the molecules themselves.
T1: mouse TSLP-His (Sino Biological, product code 51005-M08H) (mouse, UniProt Q9JIE6 20-140)
T1 construct: Bought reagent; also called TSLP (Mouse); not shown: His tag
T1 sequence (looked up): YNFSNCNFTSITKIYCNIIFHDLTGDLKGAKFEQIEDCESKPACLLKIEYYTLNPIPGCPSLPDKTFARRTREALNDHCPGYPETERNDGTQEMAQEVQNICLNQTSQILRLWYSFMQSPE

B1: humanized anti-TSLP monoclonal antibody HA-II (antibody, human IgG1, kappa, L234A L235A, V domains shown)
VH: QVQLVQSGAEVKKPGASVKVSCKASGYTFTSYWMHWVRQAPGQGLEWIGLIDPSDSDTTYNQKFKGRATLTVDTSTSTAYMELSSLRSEDTAVYYCSRSLDGYFDHWGQGTLVTVSS
VL: DIVMTQSPSSLSASVGDRVTITCRASENIYSYLAWYQQKPGKAPKLLVYNARTLAEGVPSRFSGSGSGTDFTLTISSLQPEDFATYYCQHHYGTPWTFGGGTKVEIKR
B2: humanized anti-TSLP monoclonal antibody HA-IV (antibody, human IgG1, kappa, L234A L235A)
heavy: not shown
light: DIVMTQSPSSLSASVGDRVTITCRASENIYSYLAWYQQKPGKAPKLLVYNARTLAEGVPSRFSGSGSGTDFTLTISSLQPEDFATYYCQHHYGTPWTFGGGTKVEIKRTVAAPSVFIFPPSDEQLKSGTASVVCLLNNFYPREAKVQWKVDNALQSGNSQESVTEQDSKDSTYSLSSTLTLSKADYEKHKVYACEVTHQGLSSPVTKSFNRGEC
B3: humanized anti-TSLP monoclonal antibody HA-III (antibody, human IgG1, kappa, L234A L235A)
heavy: not shown
light: DIQMTQSPSSLSASVGDRVTITCRASENIYSYLAWYQQKPGKAPKLLVYNARTLAEGVPSRFSGSGSGTDFTLTISSLQPEDFATYYCQHHYGTPWTFGGGTKVEIKRTVAAPSVFIFPPSDEQLKSGTASVVCLLNNFYPREAKVQWKVDNALQSGNSQESVTEQDSKDSTYSLSSTLTLSKADYEKHKVYACEVTHQGLSSPVTKSFNRGEC
B4: humanized anti-TSLP monoclonal antibody HA-I (antibody, human IgG1, kappa, L234A L235A, V domains shown)
VH: QVQLVQSGAEVKKPGASVKVSCKASGYTFTSYWMHWVRQAPGQGLEWIGLIDPSDSDTTYNQKFKGRATLTVDTSTSTAYMELSSLRSEDTAVYYCSRSLDGYFDHWGQGTLVTVSS
VL: DIVMTQSPSSLSASVGDRVTITCRASENIYSYLAWYQQKPGKSPKLLVYNARTLAEGVPSRFSGSGSGTDFTLTISSLQPEDFATYYCQHHYGTPWTFGGGTKVEIKR
notes: also called HA-1; EB070

This test addresses T1, mouse TSLP-His (Sino Biological, …). In words: ELISA, mouse TSLP-His coated. (ELISA stands for enzyme-linked immunosorbent assay.)
Method: It was washed with 300 μl/well PBST for five times, 1% BSA-PBST was added, and it was sealed at 37° C. for 1 h. […] It was washed with 300 μl/well PBST for five times, then Goat AntiHuman IgG-HRP diluted with 1% BSA-PBST 1:5000 was added and incubated at 37° C. for 1 h. A TMB color kit was used for color development at 100 μl/well, it was color-developed at the room temperature for 5 min, then terminated with 2 M H₂SO₄. An ELISA plate was read at 450 nm/630 nm, and the corresponding EC50 value was calculated.
In the case of B1, the binding result is given as “no binding (tested: 16 µg/ml (highest concentration))”.
For B2, the binding result is listed as “no binding (tested: 16 µg/ml (highest concentration))”.
In the case of B3, the binding result is “no binding (tested: 16 µg/ml (highest concentration))”.
For B4, the binding result was “no binding (tested: 16 µg/ml (highest concentration))”.
